Assays:
[1] = molecular target: NP-Renilla wild type (NP of influenza virus A/WSN/33) (Influenza A virus A/WSN/33, UniProt P15682); assay: LUMIER; details: partners not purified
[2] = molecular target: NP of influenza virus A/WSN/33 in infected A549 cells (Influenza A virus A/WSN/33, UniProt P15682); assay: flow cytometry on cells; details: one partner purified
[3] = molecular target: NP of influenza virus A/PR/8/34 in infected A549 cells (Influenza A virus A/PR/8/34, UniProt P03466); assay: flow cytometry on cells; details: one partner purified
Sequence of NP of influenza virus A/PR/8/34 in infected A549 cells (P03466 whole entry): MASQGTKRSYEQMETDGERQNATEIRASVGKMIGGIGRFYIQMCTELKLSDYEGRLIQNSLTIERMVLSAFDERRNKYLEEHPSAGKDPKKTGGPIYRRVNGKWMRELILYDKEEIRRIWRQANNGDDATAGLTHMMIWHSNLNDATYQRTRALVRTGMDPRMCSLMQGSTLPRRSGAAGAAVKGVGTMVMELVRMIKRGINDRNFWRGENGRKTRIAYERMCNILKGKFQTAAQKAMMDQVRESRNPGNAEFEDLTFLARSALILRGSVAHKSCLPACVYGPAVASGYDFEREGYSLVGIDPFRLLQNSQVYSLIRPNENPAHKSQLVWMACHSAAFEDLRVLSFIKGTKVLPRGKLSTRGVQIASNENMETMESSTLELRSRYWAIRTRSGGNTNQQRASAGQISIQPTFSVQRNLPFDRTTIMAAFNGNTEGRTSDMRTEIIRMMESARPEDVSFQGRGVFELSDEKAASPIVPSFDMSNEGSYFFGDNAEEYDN

Sequence of NP of influenza virus A/WSN/33 in infected A549 cells (P15682 whole entry): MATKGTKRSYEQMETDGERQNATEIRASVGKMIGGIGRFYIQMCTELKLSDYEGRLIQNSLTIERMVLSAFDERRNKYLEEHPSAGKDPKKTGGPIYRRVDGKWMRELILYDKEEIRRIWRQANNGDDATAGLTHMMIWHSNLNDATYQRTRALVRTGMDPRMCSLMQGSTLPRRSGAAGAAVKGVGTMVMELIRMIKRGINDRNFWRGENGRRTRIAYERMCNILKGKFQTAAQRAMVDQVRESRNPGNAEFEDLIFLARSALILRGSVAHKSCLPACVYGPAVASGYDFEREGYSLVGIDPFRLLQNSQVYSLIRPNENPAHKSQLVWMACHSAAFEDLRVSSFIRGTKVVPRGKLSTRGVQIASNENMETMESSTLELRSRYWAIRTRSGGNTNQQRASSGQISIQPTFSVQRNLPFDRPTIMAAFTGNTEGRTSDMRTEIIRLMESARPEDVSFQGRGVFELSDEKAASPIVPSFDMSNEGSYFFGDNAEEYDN
Sequence of NP-Renilla wild type (NP of influenza virus A/WSN/33) (P15682 whole entry): as above

Row | Binder | binding result [1] | binding result [2] | binding result [3]
1 | αNP-VHH1-HA (VHH, also called anti-NP-VHH1-HA; HA-tagged anti-NP-VHH1; source: 293T, transfected (pCAGGS), in lysate) VHH: QVQLQESGGGLVQAGGSLRLTCALSERTSTSYAQGWFRQPPGKEREFVASLRTHDGNTHYTDSVKGRFTISRDNAENTLYLQMNSLKTEDTAVYYCAASLGYSGAYASGYDYWGQGTQVTVSS | binds |  | 
2 | αNP-VHH1-Alexa Fluor 647 (VHH) VHH: QVQLQESGGGLVQAGGSLRLTCALSERTSTSYAQGWFRQPPGKEREFVASLRTHDGNTHYTDSVKGRFTISRDNAENTLYLQMNSLKTEDTAVYYCAASLGYSGAYASGYDYWGQGTQVTVSS |  | binds | binds

— article PMC5156300 (mBio, 2016)
